Test results: publication PMC7720213, “Structure of eukaryotic DNA polymerase δ bound to the PCNA clamp while encircling DNA” (Proceedings of the National Academy of Sciences of the …, 2020)
Values belong to the binder of their own block, whether it stands above or below them.

B5: S.c. DNA polymerase δ regulatory subunit Pol31 (natural protein, S. cerevisiae)
chain: MDALLTKFNEDRSLQDENLSQPRTRVRIVDDNLYNKSNPFQLCYKKRDYGSQYYHIYQYRLKTFRERVLKECDKRWDAGFTLNGQLVLKKDKVLDIQGNQPCWCVGSIYCEMKYKPNVLDEVINDTYGAPDLTKSYTDKEGGSDEIMLEDESGRVLLVGDFIRSTPFITGVVVGILGMEAEAGTFQVLDICYPTPLPQNPFPAPIATCPTRGKIALVSGLNLNNTSPDRLLRLEILREFLMGRINNKIDDISLIGRLLICGNSVDFDIKSVNKDELMISLTEFSKFLHNILPSISVDIMPGTNDPSDKSLPQQPFHKSLFDKSLESYFNGSNKEILNLVTNPYEFSYNGVDVLAVSGKNINDICKYVIPSNDNGESENKVEEGESNDFKDDIEHRLDLMECTMKWQNIAPTAPDTLWCYPYTDKDPFVLDKWPHVYIVANQPYFGTRVVEIGGKNIKIISVPEFSSTGMIILLDLETLEAETVKIDI
notes: Pol31 (B subunit), regulatory subunit of Saccharomyces cerevisiae DNA polymerase δ; Stood in the assay as part of the three-subunit Pol δ; also called B subunit

Legend:
Pol31-Pol32 complex = Pol31-Pol32 complex (Saccharomyces cerevisiae, UniProt P46957;P47110 1-487;1-350); assay: EMSA; 5 mM Mg2+; 0-5 uM protein, 0.5 nM DNA; EMSA: 50 mM Hepes pH 7.5, 5 mM MgCl2, 50 mM NaOAc, 1 mM DTT, 6% glycerol, 90 min at room temperature; 8% native PAGE in 40 mM Tris, 150 mM glycine pH 8.0; conditions: protein: recombinant; tags: GST tag removed with PreScission protease; copies: 1;1; label: 5'-32P; single strand
[1] = target: T1, S.c. DNA polymerase δ catalytic subunit Pol3 with the D321S and E323S mutations in the exonuclease active site (S. cerevisiae, UniProt P15436 1-1097, D321S | E323S); assay: cryo-EM structure; 8.0 uM PCNA and 6.0 uM T/P DNA mixed in Hepes-KOH pH 7.5, DTT, MgAc, KOAc, potassium glutamate, 0.4 mM ddTTP, then 3.3 uM Pol δ added; PCNA:Pol δ:T/P DNA 1.2:1:0.9; on ice 1 h; 3.2 Å map; conditions: both partners purified
T1 construct: Pol3, catalytic subunit of Saccharomyces cerevisiae DNA polymerase δ; carries a 4Fe-4S cluster (CysB) and a zinc finger (CysA); Stood in the assay as part of the three-subunit Pol δ; also called catalytic subunit of Pol δ^exo-
T1 sequence: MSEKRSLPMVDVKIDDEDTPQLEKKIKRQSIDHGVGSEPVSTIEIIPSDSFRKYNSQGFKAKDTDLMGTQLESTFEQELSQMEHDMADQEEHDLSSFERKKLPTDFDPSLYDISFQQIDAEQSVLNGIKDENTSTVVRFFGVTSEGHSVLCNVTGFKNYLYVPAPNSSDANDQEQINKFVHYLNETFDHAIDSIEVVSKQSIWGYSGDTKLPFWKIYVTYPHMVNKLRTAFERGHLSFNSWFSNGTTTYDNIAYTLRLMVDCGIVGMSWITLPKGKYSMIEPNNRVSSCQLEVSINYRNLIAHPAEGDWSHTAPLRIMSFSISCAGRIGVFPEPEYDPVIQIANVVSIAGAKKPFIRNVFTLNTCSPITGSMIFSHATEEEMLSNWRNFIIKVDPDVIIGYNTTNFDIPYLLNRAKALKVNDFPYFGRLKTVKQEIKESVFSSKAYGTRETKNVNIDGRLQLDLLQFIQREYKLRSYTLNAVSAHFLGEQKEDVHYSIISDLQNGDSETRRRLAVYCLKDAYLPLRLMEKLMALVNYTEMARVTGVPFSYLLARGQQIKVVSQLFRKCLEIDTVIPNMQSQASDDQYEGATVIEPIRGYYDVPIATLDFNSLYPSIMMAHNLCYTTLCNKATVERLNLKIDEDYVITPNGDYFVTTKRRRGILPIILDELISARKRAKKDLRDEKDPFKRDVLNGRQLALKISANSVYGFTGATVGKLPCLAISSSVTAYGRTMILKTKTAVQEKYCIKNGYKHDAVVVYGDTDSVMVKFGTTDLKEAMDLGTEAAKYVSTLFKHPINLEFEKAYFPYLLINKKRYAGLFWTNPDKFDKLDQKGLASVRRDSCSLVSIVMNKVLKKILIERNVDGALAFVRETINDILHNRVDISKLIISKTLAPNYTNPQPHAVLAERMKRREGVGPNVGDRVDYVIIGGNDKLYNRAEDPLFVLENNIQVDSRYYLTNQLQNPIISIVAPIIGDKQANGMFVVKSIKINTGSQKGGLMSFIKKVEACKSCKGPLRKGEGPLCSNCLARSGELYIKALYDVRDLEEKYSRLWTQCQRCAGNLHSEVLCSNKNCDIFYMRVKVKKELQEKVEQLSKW

[2] = target: T2, S.c. DNA polymerase δ (Pol3-Pol31-Pol32) harboring the D321S and E323S mutations in the exonuclease domain of … (S. cerevisiae, UniProt P15436 1-1097; P46957 1-487; P47110 1-350, D321S | E323S); assay: as above; conditions: both partners purified
T2 construct: Pol3, catalytic subunit of Saccharomyces cerevisiae DNA polymerase δ; Pol31 (B subunit), regulatory subunit of Saccharomyces cerevisiae DNA polymerase δ; Pol32, regulatory subunit of Saccharomyces cerevisiae DNA polymerase δ; also called Pol δ^exo-; Pol δ; copies: + +

[3] = target: the molecule itself; assay: as above
[4] = target: Pol delta exo- (Pol3-Pol31-Pol32);PCNA (Saccharomyces cerevisiae;Saccharomyces …, UniProt P15436;P46957;P47110;P15873 1-1097;1-487;1-350;1-258, D321S;E323S|); assay: cryo-EM 3.2 A; ddTTP; 4Fe-4S cluster, Zn2+; EMSA: 50 mM Hepes pH 7.5, 5 mM MgCl2, 50 mM NaOAc, 1 mM DTT, 6% glycerol, 90 min at room temperature; 8% native PAGE in 40 mM Tris, 150 mM glycine pH 8.0; conditions: protein: recombinant;recombinant; tags: ;; copies: 1;1;1;3; 25 bp, 5' overhang 13 nt on template
[5] = target: B5; assay: cryo-EM structure; 8.0 uM PCNA and 6.0 uM T/P DNA mixed in Hepes-KOH pH 7.5, DTT, MgAc, KOAc, potassium glutamate, 0.4 mM ddTTP, then 3.3 uM Pol δ added; PCNA:Pol δ:T/P DNA 1.2:1:0.9; on ice 1 h; 3.2 Å map; conditions: both partners purified

B1: 62-mer ssDNA (ssDNA)
DNA: ATGCTTAGCCTGAGGACTATTCTACTTAACGCGAGTTACGTGACGGTATCTTATCCGGCGC
- binding result (Pol31-Pol32 complex): binds

- binding result [1]: binds
- binding result [2]: binds
B2: S.c. proliferating cell nuclear antigen (PCNA) sliding clamp (natural protein, S. cerevisiae)
chain: MLEAKFEEASLFKRIIDGFKDCVQLVNFQCKEDGIIAQAVDDSRVLLVSLEIGVEAFQEYRCDHPVTLGMDLTSLSKILRCGNNTDTLTLIADNTPDSIILLFEDTKKDRIAEYSLKLMDIDADFLKIEELQYDSTLSLPSSEFSKIVRDLSQLSDSINIMITKETIKFVADGDIGSGSVIIKPFVDMEHPETSIKLEMDQPVDLTFGAKYLLDIIKGSSLSDRVGIRLSSEAPALFQFDLKSGFLQFFLAPKFNDEE
notes: PCNA of Saccharomyces cerevisiae, homotrimeric ring; also called PCNA clamp; PCNA trimer; source: purified
- stoichiometry N [3]: 3

B3: T/P DNA (38-nt template / 25-nt primer) (dsDNA)
DNA 1: CTGCACGAATTAAGCAATTCGTAATCATGGTCATAGCT
DNA 2: AGCTATGACCATGATTACGAATTGC
modifications: primer 3'-terminal dideoxy-C
- binding result [4]: binds

- binding result [5]: binds
B4: S.c. DNA polymerase δ regulatory subunit Pol32 (natural protein, S. cerevisiae)
chain: MDQKASYFINEKLFTEVKPVLFTDLIHHLKIGPSMAKKLMFDYYKQTTNAKYNCVVICCYKDQTIKIIHDLSNIPQQDSIIDCFIYAFNPMDSFIPYYDIIDQKDCLTIKNSYELKVSESSKIIERTKTLEEKSKPLVRPTARSKTTPEETTGRKSKSKDMGLRSTALLAKMKKDRDDKETSRQNELRKRKEENLQKINKQNPEREAQMKELNNLFVEDDLDTEEVNGGSKPNSPKETDSNDKDKNNDDLEDLLETTAEDSLMDVPKIQQTKPSETEHSKEPKSEEEPSSFIDEDGYIVTKRPATSTPPRKPSPVVKRALSSSKKQETPSSNKRLKKQGTLESFFKRKAK
notes: Pol32, regulatory subunit of Saccharomyces cerevisiae DNA polymerase δ; Stood in the assay as part of the three-subunit Pol δ

Binder: B5
- binding result [1]: binds
